The test system of this assay is T cells. Description: T cell expansion with cytokines after TCR stimulation (cell surface staining). The assay is classed as cell-based. Conditions: αCD3/αCD28 beads plus indicated cytokine. How it is done:
Previously frozen T cells were thawed and contacted with αCD3/αCD28 dynal beads (cell to bead ratio of 1 to 3) in the presence of indicated cytokines at day 0. From day 3, twice more T cell growth media (RPMI1640, 10% FBS, 2 mM L-glutamin, 100 µM non-essential amino acids, 1 mM sodium pyruvate, 10 mM Hepes, 55 µM β-mercaptoethanol, 10% FBS, and 100 U/ml of penicillin-streptomycin) was added to the plate with indicated cytokines (without cytokine, rhIL2 (50 IU/ml, Novartis), IL6 (10 ng/ml, R&D systems), IL7 (10 ng/ml, Peprotech), IL15 (10 ng/ml, Peprotech), and IL21 (10 ng/ml, Peprotech)) at day 3, 5, 6, 9, 12, 15, and 18.
Cells were harvested at indicated time points and then stained with live/dead dye (eFluro780, eBioscience), CD3 (BioLegend, clone#: OKT3), CD4 (BioLegend, clone#: OKT4), CD8 (BD Bioscience, clone#: RPA-T8), CD45RO (BioLegend, clone#: UCHL1), CCR7 (BioLegend, clone#: G043H7), CD27 (BD Horizon, clone#: L128), CD127 (BioLegend, clone#: A019D5), CD57 (BioLegend, clone#: HCD57), CD126 (BioLegend, clon#: UV4), and CD130 (R&D Systems, clone#: 28126) antibodies. The cells were acquired by FACS Fortessa and then FlowJo program was used for data analysis.

B1: IL7: cytokine present during activation of T cells with αCD3αCD28 beads (protein, UniProt P13232 26-177, looked up)
Interleukin-7: DCDIEGKDGKQYESVLMVSIDQLLDSMKEIGSNCLNNEFNFFKRHICDANKEGMFLFRAARKLRQFLKMNSTGDFDLHLLKVSEGTTILLNCTGQVKGRKPAALGEAQPTKSLEENKSLKEQKKLNDLCFLKRLLQEIKTCWNKILMGTKEH
On to B1, for which the T cell expansion result is reported as “enhanced T cell expansion”.

Values taken from US20230256017A1, “METHODS OF MAKING CHIMERIC ANTIGEN RECEPTOR-EXPRESSING CELLS” (Novartis AG, priority 2020, published 2023).
